Legend:
[1] = biological target: γ-tubulin small complex (γ-TuSC), P53378;P38863;P53540; assay: GST pull-down, immunoblot anti-His (bound Spc97/Spc98), Li-cor quantification; conditions: 300 nM Spc110 1-220; read off a plot
[2] = biological target: γ-TuSC^Spc98Δ1–156, P53378;P38863;P53540; assay: as above; conditions: 300 nM Spc110 1-220; parent: est. 6; read off a plot; scale: %
[3] = biological target: γ-tubulin small complex (γ-TuSC), P53378;P38863;P53540; assay: GST pull-down, immunoblot anti-Tub4 (bound Tub4), Li-cor quantification; conditions: 300 nM Spc110 1-220; read off a plot
[4] = biological target: γ-TuSC^Spc98Δ1–156, P53378;P38863;P53540; assay: as above; conditions: 300 nM Spc110 1-220; parent: est. 42; read off a plot; scale: %
[5] = biological target: γ-tubulin small complex (γ-TuSC) [S. cerevisiae]; assay: GST pull-down, immunoblot anti-His (bound Spc97, Spc98), Li-cor quantification; conditions: 300 nM Spc110 1-220; read off a plot
[6] = biological target: γ-tubulin small complex (γ-TuSC) [S. cerevisiae]; assay: GST pull-down, immunoblot anti-Tub4 (bound Tub4), Li-cor quantification; conditions: 300 nM Spc110 1-220; read off a plot
[7] = biological target: γ-TuSC^Spc98Δ1–156 [S. cerevisiae]; assay: GST pull-down, immunoblot anti-His (bound Spc97/Spc98), Li-cor quantification; conditions: 300 nM Spc110 1-220; read off a plot; scale: %
[8] = biological target: γ-TuSC^Spc98Δ1–156 [S. cerevisiae]; assay: GST pull-down, immunoblot anti-Tub4 (bound Tub4), Li-cor quantification; conditions: 300 nM Spc110 1-220; read off a plot; scale: %
[9] = biological target: GST-Spc110^1–220-2D (S. cerevisiae) (UniProt P32380)
[10] = biological target: GST-Spc110^1–220-5D (S. cerevisiae) (UniProt P32380)
[11] = biological target: GST-Spc110^1–220-3D (S. cerevisiae) (UniProt P32380)
[12] = biological target: γ-tubulin small complex (γ-TuSC) (S. cerevisiae) (UniProt P53378); assay: SEC; γ-TuSC mixed with GST-Spc110^1–220 variant in 1:4 molar ratio (2.3:9.3) in TB150 buffer, 1 hr at 4°C, Superdex 200 10/300 or Superose 6 10/300; shift of γ-TuSC to the void volume; fractions by SDS-PAGE and silver staining; void-volume fraction also by negative-stain electron microscopy
[13] = biological target: γ-tubulin small complex (γ-TuSC) (S. cerevisiae) (UniProt P53378); assay: SEC; as a3 (TB150, Superose 6 10/300) but with the concentrations of γ-TuSC and Spc110^1–220 variants doubled (Figure 2—figure supplement 2A)

“GST-Spc110^1–220-5D (from UniProt P32380) CM1-QA” was tested, and the percent of parent [1] was 45%, the response [2] was 3 and the percent of parent [3] was 49%. For the same substance, the response [4] was 34.

In the case of “GST-Spc110^1–220 (wild type, from E. coli, non-phosphorylated) mutant S36D; S91D [S. cerevisiae] / γ-tubulin small complex (γ-TuSC) [S. cerevisiae] chain 1 S36D, chain 1 S91D”, the response [5] is reported as 3300 RU and the response [6] is reported as 3300 RU.

“GST-Spc110^1–220-5D (from UniProt P32380) T18D; CM1-QA” was tested, and the percent of parent [1] was 16%, the response [2] was 9 and the percent of parent [3] was 40%. It also gave a response [4] of 32.

In the case of “GST-Spc110^1–220 (wild type, from E. coli, non-phosphorylated) mutant S36D; S60D; T64D; T68D; S91D [S. cerevisiae] / γ-tubulin small complex (γ-TuSC) [S. cerevisiae] chain 1 S36D, chain 1 S60D, chain 1 T64D, chain 1 T68D, chain 1 S91D”, the response [5] is reported as 8300 RU and the response [6] is reported as 11000 RU.

In the case of “GST-Spc110^1–220 (wild type, from E. coli, non-phosphorylated) mutant S60D; T64D; T68D [S. cerevisiae] / γ-tubulin small complex (γ-TuSC) [S. cerevisiae] chain 1 S60D, chain 1 T64D, chain 1 T68D”, the response [5] is reported as 7400 RU and the response [6] is reported as 10000 RU.

For “GST-Spc110^1–220 (wild type, from E. coli, non-phosphorylated) mutant S36D; S60D; T64D; T68D; S91D [S. cerevisiae] / γ-TuSC^Spc98Δ1–156 [S. cerevisiae] chain 1 S36D, chain 1 S60D, chain 1 T64D, chain 1 T68D, chain 1 S91D”, the response [7] was 6 and the response [8] was 42.

“γ-tubulin small complex (γ-TuSC), P53378 1-473; P38863 1-823; P53540 1-846” gave an in vitro MT nucleation activity (MTs/field normalised to buffer only); 3 μM γ-TuSC pre-incubated with 15 μM GST-Spc110^1–220 variant; compared to the buffer control and γ-TuSC alone [9] of 3 fold, an in vitro MT nucleation activity (MTs/field normalised to buffer only); 3 μM γ-TuSC pre-incubated with 15 μM GST-Spc110^1–220 variant; compared to the buffer control and γ-TuSC alone [10] of 3 fold and an in vitro MT nucleation activity (MTs/field normalised to buffer only); 3 μM γ-TuSC pre-incubated with 15 μM GST-Spc110^1–220 variant; compared to the buffer control and γ-TuSC alone [11] of 3 fold. The stoichiometry N [12] was > 14 and the stoichiometry N [13] was 2.
